Reference: US20140348844A1 (UCB, published 2014)
Where “and” joins values, the source holds several entries; their conditions need not be identical. Identical values can stand only once.

Columns and labels:
[1] = biological target: TcdA CROPS456 (TcdA456) (Clostridium difficile ribotype 027, UniProt P16154 2205-2608)
[2] = biological target: T1, TcdA from ribotype 027 (Clostridium difficile ribotype 027, UniProt P16154 1-2710); test: estimated from SPR on TcdA sub-domains
T1 construct: also called TcdA ribotype 027; TcdA whole toxin

[3] = biological target: TcdA purified from strain VPI10463 (Clostridium difficile strain VPI10463, UniProt P16154 1-2710); test: cell-based or functional assay
[4] = biological target: TcdA ribotype 078 (Clostridium difficile ribotype 078); test: cell-based or functional assay
[5] = biological target: T2, toxin B (VPI 10463) (Clostridium difficile strain VPI 10463, UniProt P18177 2-2366); test: cell-based or functional assay
[6] = biological target: T3, TcdB binding (TcdB1234) (Clostridium difficile ribotype 027, UniProt P18177 1833-2366); test: SPR BIAcore 3000, Mab captured on anti-human Fc, TcdB1234 in solution, purified Mab 3 point titration
T3 construct: also called CROPs1,2,3,4 of Toxin B

[7] = biological target: T2, toxin B (VPI 10463); test: cell-based or functional assay; remark: listed apart in the source
[8] = biological target: T2, toxin B (VPI 10463); test: cell-based or functional assay; remark: listed apart in the source
[9] = biological target: T3, TcdB binding (TcdB1234); test: SPR Biacore 3000, biotinylated TcdB1234 on streptavidin chip, antibody at 500 nM, saturating response

B1: CA164_00995.g1 (antibody, V domains shown)
VH: EVQLVESGGGLVQPGGSLRLSCTASGFSLSNYDMIWVRQAPGKGLEYIGFINTGGITYYASWAKGRFTISRDSSTVYLQMNSLRAEDTATYFCARVDDYIGAWGAGLWGQGTLVTVS
VL: DVVMTQSPSTLSASVGDRVTITCQASQSINNYFSWYQQKPGKAPKLLIYGAANLASGVPSRFKGSGSGTEYTLTISSLQPDDFATYSCQNNYGVHIYGAAFGGGTKVEIK
notes: also called CA995; CA164_0995.g1
**Q.** For B1, which Kd [1] is on record?
**A.** 0.119 nM

**Q.** And the koff [1]?
**A.** 3.42e-05 s⁻¹

**Q.** And the kon [1]?
**A.** 287000 M⁻¹ s⁻¹

**Q.** And the “Valency of binding, TcdA, est.” value [2]?
**A.** 1

**Q.** What about the “EC50 (ng/ml), TcdA neutralisation on Caco-2 cells, TcdA at LD80” value [3] of the same binder?
**A.** 37.6 ng/mL

B2: CA164_01000.g1 (antibody, V domains shown)
VH: EVQLVESGGGLIQPGGSLRLSCTVSGIDLSSDAVGWVRQAPGKGLEYIGIIATFDSTYYASWAKGRFTISKASSTTVYLQMNSLRAEDTATYFCARTGSWYYISGWGSYYYGMDLWGQGTLVTVS
VL: EIVMTQSPSTLSASVGDRVTITCQASQSIYSYLAWYQQKPGKAPKLLIYDASTLASGVPSRFKGSGSGTEFTLTISSLQPDDFATYYCQGNAYTSNSHDNAFGGGTKVEIK
**Q.** For B2, which “EC50 values (ng/ml) - TcdA ribotype 078, LD80” value [4] is on record?
**A.** 2.04 ng/mL

**Q.** And the “EC50 values (ng/ml) - TcdA ribotype 078, LD90” value [4]?
**A.** 2.41 ng/mL

**Q.** And the “EC50 values (ng/ml) - TcdA ribotype 078, LD95” value [4]?
**A.** 5.03 ng/mL

**Q.** What about the “EC50 values (ng/ml) - TcdA ribotype 078, LDmax” value [4] of the same binder?
**A.** 14.2 ng/mL

B3: CA164_1134.g5 (antibody, V domains shown)
VH: EVQLQESGPGLVKPSETLSLTCTVSGFSLNSYTITWVRQPPGKGLEWIAAISGGGSTYFNSALKSRVTISRDTSKSQVSLKLSSVTAADTAVYYCTRPRWYPRSYFDYWGRGTLVTVS
VL: DVQLTQSPSFLSASVGDRVTITCKASKSISNHLAWYQEKPGKANKLLIHSGSTLQPGTPSRFSGSGSGTEFTLTISSLQPEDFATYYCQQYDEYPYTFGQGTRLEIK
notes: also called CA1134; CA164_01134.g5
**Q.** B3 was tested. Which “IC50 (ng/ml), TcdB neutralisation on Caco-2 cells, toxin at LD80” value (“IC50 (ng/ml), TcdB neutralisation” below) [5] did it give?
**A.** 8 ng/mL

**Q.** What about the Kd [6] of the same binder?
**A.** 0.0481 nM and 0.048 nM

**Q.** What about the koff [6] of the same binder?
**A.** 2.45e-05 s⁻¹

**Q.** What about the kon [6] of the same binder?
**A.** 509000 M⁻¹ s⁻¹

**Q.** And the “Maximum neutralisation, TcdB LD75” value [7]?
**A.** 45%

**Q.** And the “Maximum neutralisation, TcdB LD86” value [7]?
**A.** 25%

**Q.** What about the “Maximum neutralisation, TcdB LD90” value [7] of the same binder?
**A.** 15%

**Q.** And the “EC50(ng/ml), TcdB neutralisation on Caco-2 cells, constant toxin concentration” value [8]?
**A.** > 1000 ng/mL

B4: CA164_1099.g2 (antibody, V domains shown)
VH: EVQLQESGPGLVKPSETLSLTCTVSGFSLQSYTISWVRQPPGKGLEWIAAISGGGSTYYNLPLKSRVTISRDTSKSQVSLKLSSVTAADTAVYYCTRPRWYPRSYFDYWGRGTLVTVS
VL: DVQLTQSPSFLSASVGDRVTITCKASKSISNHLAWYQEKPGKANKLLIHSGSTLQSGTPSRFSGSGSGTEFTLTISSLQPEDFATYYCQQYDEYPYTFGQGTRLEIKR
**Q.** How did the “IC50 (ng/ml), TcdB neutralisation” value [5] turn out when B4 was run?
**A.** 2 ng/mL

B5: CA164_1151.g4 (antibody, V domains shown)
VH: EVQLQESGPGLVKPSETLSLTCTVSGFSLTSYYVHWVRQPPGKGLEWMGCIRTGGNTEYQSEFKSRVTISRDTSKNQVSLKLSSVTAADTAVYYCARGNYGFAYWGQGTLVTVS
VL: AIQMTQSPSSLSASVGDRVTITCKASQNVGNNVAWYQHKPGKAPKLLIYYASNRFTGVPSRFTGGGYGTDFTLTISSLQPEDFATYYCQRVYQSTWTFGQGTKVEIK
notes: also called CA1151; CA1151.g4
**Q.** With B5 as the binder, how does the “IC50 (ng/ml), TcdB neutralisation” value [5] read?
**A.** 182 ng/mL

**Q.** What about the “Maximum neutralisation, TcdB LD75” value [7] of the same binder?
**A.** 45%

**Q.** And the “Maximum neutralisation, TcdB LD86” value [7]?
**A.** 25%

**Q.** What about the “Maximum neutralisation, TcdB LD90” value [7] of the same binder?
**A.** 20%

**Q.** And the “Binding Response (RU)” value [9]?
**A.** 1230 RU

B6: CA164_00997.g1 (antibody, V domains shown)
VH: EVQLVESGGGLVQPGGSLRLSCTVSGIDLSSHHMCWVRQAPGKGLEYIGVIYHFGSTYYANWATGRFTISKDSTTVYLQMNSLRAEDTATYFCARASIAGYSAFDPWGQGTLVTVS
VL: ALVMTQSPSSFSASTGDRVTITCQASQSISSYLSWYQQKPGKAPKLLIYRASTLASGVPSRFSGSGSGTEYTLTISCLQSEDFATYYCLGVYGYSNDDGIAFGGGTKVEIK
**Q.** B6 was tested. Which “EC50 values (ng/ml) - TcdA ribotype 078, LD80” value [4] did it give?
**A.** 0.33 ng/mL

**Q.** What about the “EC50 values (ng/ml) - TcdA ribotype 078, LD90” value [4] of the same binder?
**A.** 0.64 ng/mL

**Q.** And the “EC50 values (ng/ml) - TcdA ribotype 078, LD95” value [4]?
**A.** 1.11 ng/mL

**Q.** And the “EC50 values (ng/ml) - TcdA ribotype 078, LDmax” value [4]?
**A.** 2.57 ng/mL

B7: CA164_00922.g1 (antibody, V domains shown)
VH: EVQLVESGGGLVQPGGSLRLSCAASGFTISSYYMSWVRQAPGKGLEWIGIISSGGHFTWYANWAKGRFTISSDSTTVYLQMNSLRDEDTATYFCARAYVSGSSFNGYALWGQGTLVTVS
VL: DPVMTQSPSTLSASVGDRVTITCQASQSISNALAWYQQKPGKAPKLLIYSASSLASGVPSRFKGSGSGTEFTLTISSLQPDDFATYYCQYTHYSHTSKNPFGGGTKVEIK
**Q.** What does the source list for B7?
**A.** EC50 values (ng/ml) - TcdA ribotype 078, LD80 [4]: 0.11 ng/mL; EC50 values (ng/ml) - TcdA ribotype 078, LDmax [4]: 0.68 ng/mL
